The values that follow come from US11998620B2, “PSMA targeted compounds and uses thereof” (CASE WESTERN RESERVE UNIVERSITY, priority 2021, dated 2024).

Data set [1] has as its system PSMA-expressing cancer tissue. Put plainly: Standard uptake values (SUVs) by PET and blood clearance, general statements. It counts as in vivo. Conditions: PET. As for the experimental part:
The term “standardized uptake value (SUV)” refers to a measure of radioactivity in a specific area of interest relative to an idealized even distribution of radioactive material throughout the body. SUV is used historically by nuclear medicine professionals to distinguish between “normal” and “abnormal” levels of uptake. Preferably, uptake is measured by positron emission tomography (PET) imaging or other imaging modalities.
The PSMA targeted compounds described herein include a PSMA ligand, e.g., PSMA-1, conjugated to a metal chelating agent or chelated metal nuclide. The PSMA targeted compounds described herein can selectively recognize PSMA-expressing tumors, cancer cells, and/or cancer neovasculature in vivo and be used to deliver at least one chelated metal nuclide, such as radionuclide, to the PSMA-expressing tumors, cancer cells, and/or cancer neovasculature to treat and/or detect the PSMA-expressing tumors, cancer cells, and/or cancer neovasculature in a subject. The PSMA ligand can target and/or increase the uptake of the metal chelating agent or chelated metal nuclide in PSMA expressing cancer cells compared to untargeted metal chelated agents or chelated metal nuclides administered to a subject and decrease non-PSMA target toxicity of the metal nuclide administered (e.g., systemically) to a subject.

The nature of data set [2]: In vivo PET imaging in healthy animals without tumor. Further details: species or system mice. As for the experimental part: We compared the [^68Ga]-PSMA-11 and the [^68Ga]-PSMA-1-DOTA ligand in healthy animals without tumor. Equal doses of radioactivity were injected into the same animal (a single animal was used to limit variability). We injected the [^68Ga]-PSMA-1-DOTA first to prevent blockade of its binding by the other ligand, waited 24 hours and then injected the other radiolabeled ligand.

Data set [3] in a line: Storage stability (lyophilized powder; frozen in saline). The format is physicochemical. As for the experimental part:
(§1) PSMA-1-DOTA was incubated in 100% mouse Plasma, PBS, or 100% human plasma at 37° C. […] And stability has been monitored and confirmed for at least 7 days frozen in isotonic sterile saline.

In a further data set the target is T1, PSMA (Homo sapiens, UniProt Q04609).
T1 construct: expressed in transfected cells; host or cells: PC3pip cells
T1 sequence (Q04609 whole entry): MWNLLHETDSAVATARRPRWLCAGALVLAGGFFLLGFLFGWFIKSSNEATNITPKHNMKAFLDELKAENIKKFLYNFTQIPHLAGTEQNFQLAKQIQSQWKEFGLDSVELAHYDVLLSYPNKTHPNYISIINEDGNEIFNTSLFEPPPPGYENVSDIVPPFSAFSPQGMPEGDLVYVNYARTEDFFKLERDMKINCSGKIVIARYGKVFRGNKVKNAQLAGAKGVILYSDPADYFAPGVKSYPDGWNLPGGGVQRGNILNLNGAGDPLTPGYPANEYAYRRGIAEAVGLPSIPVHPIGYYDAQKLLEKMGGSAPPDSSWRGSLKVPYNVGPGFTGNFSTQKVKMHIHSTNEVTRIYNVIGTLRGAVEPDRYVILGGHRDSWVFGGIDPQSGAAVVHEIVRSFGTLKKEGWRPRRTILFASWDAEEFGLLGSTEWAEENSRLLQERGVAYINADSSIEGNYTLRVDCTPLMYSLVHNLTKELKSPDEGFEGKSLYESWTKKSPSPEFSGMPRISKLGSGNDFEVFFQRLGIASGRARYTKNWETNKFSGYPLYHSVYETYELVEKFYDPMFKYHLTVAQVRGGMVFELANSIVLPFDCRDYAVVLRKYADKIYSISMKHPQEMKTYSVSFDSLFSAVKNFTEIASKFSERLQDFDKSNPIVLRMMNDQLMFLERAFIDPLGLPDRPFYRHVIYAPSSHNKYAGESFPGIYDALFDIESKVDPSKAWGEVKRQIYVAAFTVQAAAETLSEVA
In words: Competition binding assay using [3H]-ZJ24 with PC3pip cells. Conditions: approximately, compared to PSMA-11, PSMA I&T and ZJ24 ligands, FIG. 3. The text has this:
We first conjugated a macrocyclic DOTA to our PSMA-1 ligand enabling us to label it with [^68Ga]. We then compared the macrocyclic-conjugated PSMA-1 ligand to PSMA-11 ligand, PSMA I&T ligand, and ZJ24 ligand in a competitive radio-binding assay using [^3H]-ZJ24 with PC3pip cells. FIG. 3 illustrates that the PSMA-1 ligand conjugated to DOTA, the PSMA-1 ligand has approximately 4-5 fold higher affinity for PSMA.

A short description of data set [4]: Stability assay: incubation in plasma or PBS, HPLC. Conditions: 100% mouse plasma, PBS or 100% human plasma at 37° C., for 7 days. The format is in vitro ADME. As for the experimental part: as §1
The test system of data set [5] is PC3pip tumors that overexpress PSMA. Put plainly: In vivo PET imaging in animals harboring PC3pip tumors. The text has this:
We also made a similar comparison using animals harboring PC3pip tumors that overexpress PSMA.

Where [6] appears, read: PC3pip tumor bearing animals, PET.

Numbered stars: 1 amine (or outer) side, 2 acyl side, 3 side chain; on linkers, the order of the positions; unused ones are H or OH. Square brackets hold non-standard residues; d marks the D form. Peptide text beside a SMILES is read from it. * marks the point of attachment. DOTA = O=C(O)CN1CCN(CC(=O)O)CCN(CC(=O)*)CCN(CC(=O)O)CC1; γGlu = O=C(O)[CH](CCC(=O)[*:2])N[*:1]; X3 = O=C(C1CCC(CN[*:1])CC1)[*:2]; CO = O=C([*:1])[*:2]; Ahx = NCCCCCC(=O)O

With `NC(=O)C(CCCCNC(=O)CN1CCN(CC(=O)O)CCN(CC(=O)O)CCN(CC(=O)O)CC1)NC(=O)C(Cc1ccc(O)cc1)NC(=O)C(CCC(=O)O)NC(=O)C(CCC(=O)O)NC(=O)C(CCC(=O)O)NC(=O)CCCCCNC(=O)CCC(NC(=O)NC(CCC(=O)O)C(=O)O)C(=O)O` (stereo not shown) [JB-1498] ({Glu-CO-γGlu-Ahx}-EEEYK(DOTA)-NH2; configuration not given here), the “SUVs in salivary glands, lacrimal glands and non-PSMA expressing muscle tissue versus SUVs in PSMA-expressing cancer” value in data set [1] is reported as “substantially lower SUVs”.

As for `NC(=O)C(CCCCNC(=O)CN1CCN(CC(=O)O)CCN(CC(=O)O)CCN(CC(=O)O)CC1)NC(=O)C(CCC(=O)O)NC(=O)C(CCC(=O)O)NC(=O)C(CCC(=O)O)NC(=O)CCCCCNC(=O)C1CCC(CNC(=O)CCC(NC(=O)NC(CCC(=O)O)C(=O)O)C(=O)O)CC1` (stereo not shown) [PSMA-1-DOTA] ({Glu-CO-γGlu}-[X3][Ahx]EEEK(DOTA)-NH2; configuration not given here), in data set [2] (mouse, in vivo), the renal clearance result was “faster renal clearance” and the “renal retention of the probe” value is recorded as “less renal retention”. Moreover, the “stability frozen in isotonic sterile saline” value in data set [3] (frozen) is on record as “at least 7 days”. For the same molecule, in data set [3] (long term storage), the “stability as a lyophilized powder” value is “stability for long term storage”. In addition, on PSMA, the “higher affinity for PSMA” value is 4-5 fold. The “degradation/purity by HPLC” value in data set [4] is given as “No decline in the product”. For the same molecule, in data set [1], the “SUVs in salivary glands, lacrimal glands and non-PSMA expressing muscle tissue versus SUVs in PSMA-expressing cancer” value is “substantially lower SUVs”.

In the case of `NC(=O)[C@H](CCCCNC(=O)CN1CCN(CC(=O)O)CCN(CC(=O)O)CCN(CC(=O)O)CC1)NC(=O)[C@@H](CCC(=O)O)NC(=O)[C@@H](CCC(=O)O)NC(=O)[C@@H](CCC(=O)O)NC(=O)CCCCCNC(=O)C1CCC(CNC(=O)CC[C@H](NC(=O)N[C@@H](CCC(=O)O)C(=O)O)C(=O)O)CC1` (stereo partly shown) [[^68Ga]-PSMA-1-DOTA, metal not drawn] ({Glu-CO-γGlu}-[X3][Ahx][dE][dE][dE]K(DOTA)-NH2), the “uptake in the salivary glands” value in data set [2] (mouse, in vivo) is “none”. Also, in data set [5] (mouse, in vivo), the kidney uptake result is on record as “less kidney uptake” and the “uptake into salivary glands” value was “no uptake”.

Consider `O=C([O-])CN(CCN(CC(=O)[O-])Cc1cc(CCC(=O)NCCCCCC(=O)NCCCC[C@H](NC(=O)N[C@@H](CCC(=O)O)C(=O)O)C(=O)O)ccc1[O-])Cc1cc(CCC(=O)O)ccc1[O-].[68Ga+3].[OH3+]` [[^68Ga]-PSMA-11], for which the “uptake in the salivary glands” value in data set [2] (healthy animals without tumor, equal doses of radioactivity, PET) is “significant uptake”. Also, in data set [5] (setting [6]), the kidney uptake result is reported as “significant uptake”, the “uptake in the PC3pip tumor” value is “significant uptake”, the “uptake into lacrimal glands” value is recorded as “significant uptake” and the “uptake into salivary glands” value is given as “significant uptake”.
